Earlier results, collected in patent US9265777B2, “Antiparasitic agent for fish and method of controlling proliferation of fish parasites” (NIPPON SUISAN KAISHA, LTD., priority 2009, dated 2016).

System: White spot disease
Conditions: 40 mg per 1 kg of fish body weight orally per day, 28-day experimental period

B1: lactoferrin: marketed as an additive for fisheries (protein, UniProt P24627 20-708, looked up)
Lactotransferrin: APRKNVRWCTISQPEWFKCRRWQWRMKKLGAPSITCVRRAFALECIRAIAEKKADAVTLDGGMVFEAGRDPYKLRPVAAEIYGTKESPQTHYYAVAVVKKGSNFQLDQLQGRKSCHTGLGRSAGWIIPMGILRPYLSWTESLEPLQGAVAKFFSASCVPCIDRQAYPNLCQLCKGEGENQCACSSREPYFGYSGAFKCLQDGAGDVAFVKETTVFENLPEKADRDQYELLCLNNSRAPVDAFKECHLAQVPSHAVVARSVDGKEDLIWKLLSKAQEKFGKNKSRSFQLFGSPPGQRDLLFKDSALGFLRIPSKVDSALYLGSRYLTTLKNLRETAEEVKARYTRVVWCAVGPEEQKKCQQWSQQSGQNVTCATASTTDDCIVLVLKGEADALNLDGGYIYTAGKCGLVPVLAENRKSSKHSSLDCVLRPTEGYLAVAVVKKANEGLTWNSLKDKKSCHTAVDRTAGWNIPMGLIVNQTGSCAFDEFFSQSCAPGADPKSRLCALCAGDDQGLDKCVPNSKEKYYGYTGAFRCLAEDVGDVAFVKNDTVWENTNGESTADWAKNLNREDFRLLCLDGTRKPVTEAQSCHLAVAPNHAVVSRSDRAAHVKQVLLHQQALFGKNGKNCPDKFCLFKSETKNLLFNDNTECLAKLGGRPTYEEYLGTEYVTAIANLKKCSTSPLLEACAFLTR
infection during experimental period: no infection was observed
